# Results published in patent US9988424 (DUKE UNIVERSITY, dated 2018).
# Positions count from the first letter of the chain named. Where two headings read alike, the source gives them in different places.
# T1: J08 C.97ZA012V1V2 (HIV-1)
# T1 chain: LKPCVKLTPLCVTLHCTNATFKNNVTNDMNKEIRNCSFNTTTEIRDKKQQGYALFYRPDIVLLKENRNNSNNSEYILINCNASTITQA
# T2: gp70 B.CaseA2 V1/V2 (HIV-1 V1V2 on murine leukemia virus gp70)
# T2 construct: also called B.gp70CaseA2 V1/V2; gp70 B.CaseAV1V2
# T2 chain: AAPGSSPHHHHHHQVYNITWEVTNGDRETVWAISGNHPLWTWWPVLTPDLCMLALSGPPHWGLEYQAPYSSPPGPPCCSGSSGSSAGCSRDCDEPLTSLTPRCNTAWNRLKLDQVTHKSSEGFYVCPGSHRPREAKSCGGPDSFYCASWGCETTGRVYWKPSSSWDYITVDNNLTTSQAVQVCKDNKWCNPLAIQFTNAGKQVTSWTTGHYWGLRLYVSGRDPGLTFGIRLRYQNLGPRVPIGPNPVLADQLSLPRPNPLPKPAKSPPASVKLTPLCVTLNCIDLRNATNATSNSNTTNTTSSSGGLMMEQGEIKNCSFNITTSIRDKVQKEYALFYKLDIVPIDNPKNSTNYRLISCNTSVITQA
# T3: AE.A244 V1/V2 Tags N156QN160Q (HIV-1)
# T3 chain: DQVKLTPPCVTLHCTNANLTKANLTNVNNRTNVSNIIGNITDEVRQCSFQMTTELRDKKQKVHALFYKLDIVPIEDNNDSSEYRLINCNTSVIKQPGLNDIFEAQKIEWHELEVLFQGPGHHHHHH
# T4: D.9009SA V1V2 Tags
# T4 Env construct: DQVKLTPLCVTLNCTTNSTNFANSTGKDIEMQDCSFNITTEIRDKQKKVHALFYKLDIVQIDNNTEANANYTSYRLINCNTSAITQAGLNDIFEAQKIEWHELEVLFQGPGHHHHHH
# B1: 697D (antibody, V domains shown)
# VH: QVQLVQSGAEVKKPGSSVKVSCKASGGNFNTYTISWVRQAPGQGLEWMGRIIPIFGIVNPAQKFPGRVTINVDKSTNTAYMELSSLRSEDTAVYYCATSGVGLHFGYFDYWGQGTQVTVSS
# VL: QSVLTQPPSVSGAPGQRVTISCTGSSSNIGAHYDVHWYQQLPGTAPKLLIYGNSNRPSGVPDRFSGSKSGTSASLAITGLQAEDEADYYCQSYDSSLSGYVFGTGTKVTVL
# notes: also called mAb 697D; V2 conformational mAb 697D
# B2: 697D reverted unmutated ancestor antibody (antibody, V domains shown)
# VH: QVQLVQSGAEVKKPGSSVKVSCKASGGTFSSYTISWVRQAPGQGLEWMGRIIPILGIANYAQKFQGRVTITADKSTSTAYMELSSLRSEDTAVYYCATSGVGLHFGYFDYWGQGTLVTVSS
# VL: B1 VL with H32G
# notes: also called 697D RUA
# B3: PG16 (antibody, V domains shown)
# VH: QEQLVESGGGVVQPGGSLRLSCLASGFTFHKYGMHWVRQAPGKGLEWVALISDDGMRKYHSDSMWGRVTISRDNSKNTLYLQFSSLKVEDTAMFFCAREAGGPIWHDDVKYYDFNDGYYNYHYMDVWGKGTTVTVSS
# VL: QSALTQPASVSGSPGQTITISCNGTSSDVGGFDSVSWYQQSPGKAPKVMVFDVSHRPSGISNRFSGSKSGNTASLTISGLHIEDEGDYFCSSLTDRSHRIFGGGTKVTVL
# notes: also called mAb PG16; bnAb PG16
# B4: CH59 (antibody, V domains shown)
# VH: EVQLVESGGGLVQPGRSLRLSCAASGFTFDDGAMHWVRQAPGKGLEWVSGISWNSNIIAYADSVKGRFTISRDNAKNSLYLEMNSLRVEDTALYYCAKDSPRGELPLNYWGQGTLVTVSS
# VL: SYELTQPPSVSVSPGQTARITCSGDALPKNYAYWYQQKSGQAPVLVIYEDSKRPSGIPERFSGSSSGTMATLTISGAQVEDEADYYCYSTDSSGNHRVFGGGTKLTVL
# notes: also called mAb CH59
# Columns and labels:
# J08 C.ZM109V1V2 N173D = J08 C.ZM109V1V2 N173D (HIV-1); test: ELISA
# J08 C.ZM109.V1V2 = J08 C.ZM109.V1V2 (HIV-1); test: ELISA
# gp70 A.92RW020V1V2 = gp70 A.92RW020V1V2 (murine leukemia virus; HIV-1); test: ELISA
# J08 C.97ZA012V1V2 = target: T1, J08 C.97ZA012V1V2; test: ELISA
# J08 A.92RW020V1V2 = J08 A.92RW020V1V2 (HIV-1); test: ELISA
# gp70 B.CaseA2 V1/V2 [1] = target: T2, gp70 B.CaseA2 V1/V2; test: ELISA
# A.Q23 V1V2 tags [2] = target: A.Q23 V1V2 tags (HIV-1); test: ELISA
# AE.A244 gp120 [3] = target: AE.A244 gp120 (HIV-1)
# AE.427299 gp120D11/Q169K = target: T5, AE.427299 gp120D11/Q169K (HIV-1); test: ELISA
# T5 construct: also called AE.427299 gp120 Q169K
# [4] = target: T6, AE.A244 gp120 D11/K169V/V172E/H173Y (HIV-1); test: ELISA
# T6 construct: also called A244 gp120 Mut3
# [5] = target: T7, AE.703359 gp120D11/Q169K/R170Q/Q173H (HIV-1); test: ELISA
# T7 construct: also called AE.703359 gp120 Mut3
# AE.A244 gp120 delta 11 = target: T8, AE.A244 gp120 delta 11 (HIV-1); test: ELISA
# T8 construct: also called E.A244gp120Δ11; AE.A244 Δ11 gp120
# AE.703359 gp120D11 = target: T9, AE.703359 gp120D11 (HIV-1); test: ELISA
# T9 construct: also called AE; 703359 gp120 WT; AE.703357 (other spelling in the text)
# AE.427299 gp120D11 = target: T10, AE.427299 gp120D11 (HIV-1); test: ELISA
# T10 construct: also called AE.427299 gp120 WT
# AE.A244 gp120D11/K169V = target: T11, AE.A244 gp120D11/K169V (HIV-1); test: ELISA
# T11 construct: also called A244 gp120 K169V; AE.A244 gp120/K169V
# [6] = target: T12, AE.427299 gp120/R168K/Q169K/Y173H/A174V (HIV-1); test: ELISA
# T12 construct: also called AE.427299 gp120 Mut4
# AE.703359 gp120D11/Q169K = target: T13, AE.703359 gp120D11/Q169K (HIV-1); test: ELISA
# T13 construct: also called AE.703359 gp120 Q169K
# C.CAP206 gp140CF.12 = C.CAP206 gp140CF.12 (HIV-1); test: ELISA
# AE.A244 gp120 [7] = target: T14, AE.A244 gp120 (HIV-1); test: ELISA
# T14 construct: also called AE.A244 gD-gp120; E.A244gDneg
# gp70 B.CaseA2 V1/V2 [8] = target: T2, gp70 B.CaseA2 V1/V2; test: ELISA
# A.Q23 V1V2 tags [9] = target: A.Q23 V1V2 tags (HIV-1); test: ELISA; remark: listed apart in the source
# AE.A244 V1V2 Tags = AE.A244 V1V2 Tags (HIV-1)
# [10] = target: T15, AE.A244 V1/V2 tags, natively deglycosylated (HIV-1); test: ELISA
# T15 construct: also called AE.A244V1V2 tags Degly
# AE.A244 gp120 [11] = target: T14, AE.A244 gp120; test: ELISA; remark: listed apart in the source
# 92TH023 gp120 = 92TH023 gp120 (HIV-1)
# AE.A244 gD+ gp120 [12] = target: T16, AE.A244 gD+ gp120 (HIV-1); test: ELISA
# T16 construct: domain: gp120; also called AE.A244 gp120gD+
# [13] = target: T3, AE.A244 V1/V2 Tags N156QN160Q; test: ELISA
# AE.A244 gD+ gp120 [14] = target: T16, AE.A244 gD+ gp120; test: ELISA; remark: listed apart in the source
# MN gp120 = MN gp120 (HIV-1)
# AE.con gp140CF = target: T17, AE.con gp140CF; test: ELISA, OD405 at 10 ug/ml mAb
# T17 construct: also called AE.con.env03 gp140CF
# D.9009SA V1V2 Tags = target: T4, D.9009SA V1V2 Tags; test: ELISA, OD405 at 10 ug/ml mAb
Binder,EC50 (J08 C.ZM109V1V2 N173D),EC50 (J08 C.ZM109.V1V2),EC50 (gp70 A.92RW020V1V2),EC50 (J08 C.97ZA012V1V2),EC50 (J08 A.92RW020V1V2),EC50 (gp70 B.CaseA2 V1/V2 [1]),EC50 (A.Q23 V1V2 tags [2]),IC50 (AE.A244 gp120 [3]),EC50 [5],EC50 (AE.A244 gp120 delta 11),EC50 (AE.A244 gp120D11/K169V),EC50 (AE.703359 gp120D11/Q169K),EC50 (C.CAP206 gp140CF.12),EC50 (AE.A244 gp120 [7]),EC50 (gp70 B.CaseA2 V1/V2 [8]),EC50 (A.Q23 V1V2 tags [9]),EC50 [10],EC50 (AE.A244 gp120 [11]),IC50 (92TH023 gp120),EC50 (AE.A244 gD+ gp120 [12]),also measured
B1,0.41 nM,3 nM,14 nM,0.06 nM,0.07 nM,0.08 nM,> 66.7 nM,< 10 nM,0.12 µg/mL,0.1 µg/mL,0.06 µg/mL,0.51 µg/mL,0.1 nM,0.8 nM,0.33 nM,> 66.7 nM,3.6 nM,0.8 nM,–,–,EC50 (AE.427299 gp120D11/Q169K): 0.13 µg/mL; EC50 [4]: 0.08 µg/mL; EC50 (AE.703359 gp120D11): 0.21 µg/mL; EC50 (AE.427299 gp120D11): 0.07 µg/mL; binding result [6]: no binding; Kd (AE.A244 V1V2 Tags): 117 nM; koff (AE.A244 V1V2 Tags): 0.0024 s⁻¹; kon (AE.A244 V1V2 Tags): 20000 M⁻¹ s⁻¹
B2,–,–,–,–,–,> 667 nM,> 667 nM,–,–,–,–,–,–,–,> 667 nM,> 667 nM,–,–,–,–,–
B3,–,–,–,–,–,–,–,–,–,–,–,–,16 nM,–,–,–,–,–,10 to 100 nM,15 nM,binding result [13]: no binding (tested: 100 ug/ml); EC50 (AE.A244 gD+ gp120 [14]): 15 nM
B4,22 nM,1.16 nM,235 nM,107 nM,377 nM,–,–,< 10 nM,0.05 µg/mL,0.029 µg/mL,0.58 µg/mL,1.2 µg/mL,> 667 nM,0.03 nM,–,–,0.0015 nM,0.03 nM,< 10 nM,0.04 nM,IC50 (MN gp120): 10 to 100 nM; binding result (AE.con gp140CF): binds; binding result (D.9009SA V1V2 Tags): binds; binding result (AE.427299 gp120D11/Q169K): no binding; binding result [4]: no binding; binding result (AE.703359 gp120D11): no binding; binding result (AE.427299 gp120D11): no binding; EC50 [6]: 0.03 µg/mL; binding result [13]: binds; EC50 (AE.A244 gD+ gp120 [14]): 0.04 nM
